The assay deals with recombinant GST-FAM21 356–600. The experiment in a line: SPR. (SPR reads the build-up and loss of mass on a sensor chip optically.)

Broadly, the Kd is a measure of binding affinity in units of concentration.

Consider “MBP-CCDC93 (448–631) (from UniProt Q567U6 448-631) (domain or fragment)”, for which the Kd lay within 300 to 600 pM.
